Measured values as given in US20140187615, “THERAPEUTIC POLYNUCLEOTIDES, COMPOSITIONS, AND METHODS” (Regents of the University of Minnesota, published 2014).

Assays:
[1] = target: T1, phospholamban (PLN), pentameric (UniProt P61015); test: FP; details: ACE Kd 0.5 ± 0.1 nM; also gel shift (FIG. 1C); MOPS, 0.1% C12E8, 1 mM MgCl2, 5 mM CaCl2, pH 7.0
T1 sequence: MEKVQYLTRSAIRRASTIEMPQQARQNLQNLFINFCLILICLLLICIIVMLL

[2] = target: T2, phospholamban (PLN), pentameric (UniProt P61015 P61015:1-52); test: FP; ACE Kd 6.5 ± 0.9 nM; MOPS, 0.1% C12E8, 1 mM MgCl2, 5 mM CaCl2, pH 7.0; details: chain copies: 5 (stated pentameric); label: 5'-FAM
T2 sequence: T1 sequence

[3] = target: T2, phospholamban (PLN), pentameric; test: FP; ACE Kd 24 ± 5 nM; MOPS, 0.1% C12E8, 1 mM MgCl2, 5 mM CaCl2, pH 7.0; details: chain copies: 5 (stated pentameric); label: 5'-FAM
[4] = target: T2, phospholamban (PLN), pentameric; test: FP; ACE Kd 80 ± 40 nM; MOPS, 0.1% C12E8, 1 mM MgCl2, 5 mM CaCl2, pH 7.0; details: chain copies: 5 (stated pentameric); label: 5'-FAM
[5] = target: T2, phospholamban (PLN), pentameric; test: FP; ACE Kd 260 ± 180 nM; MOPS, 0.1% C12E8, 1 mM MgCl2, 5 mM CaCl2, pH 7.0; details: chain copies: 5 (stated pentameric); label: 5'-FAM
[6] = target: T2, phospholamban (PLN), pentameric; test: FP; ACE Kd 1.2 ± 0.4 nM; MOPS, 0.1% C12E8, 1 mM MgCl2, 5 mM CaCl2, pH 7.0; details: chain copies: 5 (stated pentameric); label: 5'-FAM

## NNNNNNNNNNNNNNNNNNNNNNNNNNNNNNNNNNNNNNNNNNNNNNNNNNNNNNNNNNNNNNNNNNNNNNNNNNNNNNNN [ssDNA random 80-mer]
[1]
  Kd: 3.1 nM

B1: ssDNA 20-mer (ssDNA)
DNA: AGCAGCACAGAGGTCAGATG
[2]
  Kd: 1.8 nM

B2: ssDNA 30-mer (ssDNA)
DNA: ACTGAGCATGGGATAACCGTTCTCAGACTT
[3]
  Kd: 21 nM

B3: ssDNA 15-mer (ssDNA)
DNA: AGTGATAGCTATGGT
[4]
  Kd: 3.1 nM

B4: ssDNA 10-mer (ssDNA)
DNA: ATAGCTTGCA
[5]
  Kd: 35 nM

B5: ssDNA 50-mer (ssDNA)
DNA: AGCAGCACAGAGGTCAGATGCAGGTAGGGTCCTATGCGTGCTACCGTGAA
[6]
  Kd: 5 nM
